# Results reported in patent publication US20060223059A1.
# Like-named read-outs stand apart in the source and are kept apart here.
# T1: Boc-V-P-R-AMC
# T1 sequence: VPR
# T2: Boc-A-A-P-F-AMC
# T2 sequence: AAPF
# T3: Boc-A-A-P-F-AMC
# T3 chain: AAPF
# T4: Boc-V-P-R-AMC
# T4 chain: VPR
# B1: recombinant kallikrein 14 (without c-myc/His epitopes) (protein)
# chain: IIGGHTCTRSSQPWQAALLAGPRRRFLCGGALLSGQWVITAAHCGRPILQVALGKHNLRRWEATQQVLRVVRQVTHPNYNSRTHDNDLMLLQLQQPARIGRAVRPIEVTQACASPGTSCRVSGWGTISSPIARYPASLQCVNINISPDEVCQKAYPRTITPGMVCAGVPQGGKDSCQGDSGGPLVCRGQLQGLVSWGMERCALPGYPGVYTNLCKYRSWIEETMRDK
# B2: recombinant hK14^myc-His (protein)
# chain: EAEFIIGGHTCTRSSQPWQAALLAGPRRRFLCGGALLSGQWVITAAHCGRPILQVALGKHNLRRWEATQQVLRVVRQVTHPNYNSRTHDNDLMLLQLQQPARIGRAVRPIEVTQACASPGTSCRVSGWGTISSPIARYPASLQCVNINISPDEVCQKAYPRTITPGMVCAGVPQGGKDSCQGDSGGPLVCRGQLQGLVSWGMERCALPGYPGVYTNLCKYRSWIEETMRDK
# Assays:
# Boc-V-P-R-AMC [1] = test system: T1, Boc-V-P-R-AMC
# Boc-A-A-P-F-AMC [2] = test system: T2, Boc-A-A-P-F-AMC
# Boc-A-A-P-F-AMC [3] = molecular target: T3, Boc-A-A-P-F-AMC
# Boc-V-P-R-AMC [4] = molecular target: T4, Boc-V-P-R-AMC
molecule,measurement,setting,value
trypsin,"hydrolysis of the fluorogenic peptide (release of AMC, arbitrary fluorescence counts)",Boc-V-P-R-AMC [1],"Fluorescence counts increased, in a dose-dependent manner, with increased concentrations of each enzyme"
same,"kinetic analysis, fluorescence counts at 30 sec intervals for 15 min",Boc-V-P-R-AMC [1],kallikrein 14- and trypsin-mediated hydrolysis of V-P-R-AMC increases over time
chymotrypsin,"hydrolysis of the fluorogenic peptide (release of AMC, arbitrary fluorescence counts)",Boc-A-A-P-F-AMC [2],"Chymotrypsin, as expected, effectively cleaved the peptide substrate in a dose-dependent fashion"
same,"kinetic analysis, fluorescence counts at 30 sec intervals for 15 min",Boc-A-A-P-F-AMC [2],Chymotrypsin activity increases with increasing concentrations and over time
B1,"hydrolysis of the fluorogenic peptide (release of AMC, arbitrary fluorescence counts)",Boc-A-A-P-F-AMC [3],neither recombinant kallikrein 14 nor kallikrein 14^myc-His hydrolyzed the peptide at any of the concentrations used
same,"kinetic analysis, fluorescence counts at 30 sec intervals for 15 min",Boc-A-A-P-F-AMC [3],kallikrein 14 produces only background fluorescence counts (identical to the negative control containing substrate only) at all concentrations throughout the experiment
same,"hydrolysis of the fluorogenic peptide (release of AMC, arbitrary fluorescence counts)",Boc-V-P-R-AMC [4],"recombinant kallikrein 14 is able to effectively cleave the trypsin substrate, V-P-R-AMC (SEQ ID NO. 30) at a similar efficiency as trypsin, the positive control"
same,"kinetic analysis, fluorescence counts at 30 sec intervals for 15 min",Boc-V-P-R-AMC [4],kallikrein 14- and trypsin-mediated hydrolysis of V-P-R-AMC increases over time
B2,"hydrolysis of the fluorogenic peptide (release of AMC, arbitrary fluorescence counts)",Boc-A-A-P-F-AMC [3],neither recombinant kallikrein 14 nor kallikrein 14^myc-His hydrolyzed the peptide at any of the concentrations used
same,"hydrolysis of the fluorogenic peptide (release of AMC, arbitrary fluorescence counts)",Boc-V-P-R-AMC [4],kallikrein 14^myc-His was not able to hydrolyze V-P-R-AMC to a significant extent and is not considered to be active
